We go through four molecules from patent publication US20240299505A1 (INDUSTRY UNIVERSITY COOPERATION FOUNDATION HANYANG …, published 2024).

T1: endogenous TLR4 of mouse macrophages (BMDMs) and mouse colon (mouse, UniProt Q9QUK6 26-835)
T1 construct: whole, on cells; Detected by immunoblot after co-immunoprecipitation from lysates
T1 sequence (looked up): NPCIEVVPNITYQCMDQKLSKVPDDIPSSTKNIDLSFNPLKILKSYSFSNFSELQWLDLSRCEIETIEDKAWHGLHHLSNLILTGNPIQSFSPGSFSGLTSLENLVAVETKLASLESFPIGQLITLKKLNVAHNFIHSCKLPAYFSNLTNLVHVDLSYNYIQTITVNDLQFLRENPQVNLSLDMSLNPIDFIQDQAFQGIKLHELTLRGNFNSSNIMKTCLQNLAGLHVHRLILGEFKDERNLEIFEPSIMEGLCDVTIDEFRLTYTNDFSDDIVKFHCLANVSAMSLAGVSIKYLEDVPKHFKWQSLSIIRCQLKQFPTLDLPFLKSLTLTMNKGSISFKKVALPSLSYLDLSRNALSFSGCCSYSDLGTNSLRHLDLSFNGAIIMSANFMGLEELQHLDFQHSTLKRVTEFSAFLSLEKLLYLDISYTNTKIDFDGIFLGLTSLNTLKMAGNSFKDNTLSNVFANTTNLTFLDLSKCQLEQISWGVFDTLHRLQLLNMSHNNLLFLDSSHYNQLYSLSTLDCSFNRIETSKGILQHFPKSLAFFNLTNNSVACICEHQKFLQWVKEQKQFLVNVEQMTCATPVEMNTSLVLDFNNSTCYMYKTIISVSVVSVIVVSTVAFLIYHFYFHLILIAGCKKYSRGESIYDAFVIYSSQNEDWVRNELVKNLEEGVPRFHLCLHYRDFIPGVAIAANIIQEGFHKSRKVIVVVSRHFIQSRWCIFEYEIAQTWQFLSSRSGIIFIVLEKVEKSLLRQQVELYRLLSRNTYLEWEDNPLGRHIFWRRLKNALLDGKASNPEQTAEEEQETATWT

T2: endogenous CYBB of mouse macrophages (BMDMs) and mouse colon (mouse, UniProt Q61093 2-570)
T2 construct: whole, on cells; Detected by immunoblot after co-immunoprecipitation from lysates; also called NOX2; gp91Phox
T2 sequence (looked up): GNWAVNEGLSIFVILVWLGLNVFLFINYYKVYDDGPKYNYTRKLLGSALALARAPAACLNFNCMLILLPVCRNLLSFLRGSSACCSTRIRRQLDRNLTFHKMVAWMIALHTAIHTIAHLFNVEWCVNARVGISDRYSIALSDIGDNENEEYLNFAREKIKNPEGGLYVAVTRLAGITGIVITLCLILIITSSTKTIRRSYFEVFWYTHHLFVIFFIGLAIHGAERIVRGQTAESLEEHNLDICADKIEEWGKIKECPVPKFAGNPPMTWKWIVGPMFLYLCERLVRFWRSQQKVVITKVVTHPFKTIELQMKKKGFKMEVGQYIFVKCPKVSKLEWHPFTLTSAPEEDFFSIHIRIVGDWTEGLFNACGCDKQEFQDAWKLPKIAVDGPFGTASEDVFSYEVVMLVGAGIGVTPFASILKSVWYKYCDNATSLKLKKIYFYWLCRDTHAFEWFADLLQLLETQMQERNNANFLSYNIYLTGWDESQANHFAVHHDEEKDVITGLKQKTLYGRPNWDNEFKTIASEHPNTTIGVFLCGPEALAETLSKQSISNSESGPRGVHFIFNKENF

B1: fluorescently labeled CYBB (enzyme)
chain: MGNWAVNEGLSIFVILVWLGLNVFLFVWYYRVYDIPPKFFYTRKLLGSALALARAPAACLNFNCMLILLPVCRNLLSFLRGSSACCSTRVRRQLDRNLTFHKMVAWMIALHSAIHTIAHLFNVEWCVNARVNNSDPYSVALSELGDRQNESYLNFARKRIKNPEGGLYLAVTLLAGITGVVITLCLILIITSSTKTIRRSYFEVFWYTHHLFVIFFIGLAIHGAERIVRGQTAESLAVHNITVCEQKISEWGKIKECPIPQFAGNPPMTWKWIVGPMFLYLCERLVRFWRSQQKVVITKVVTHPFKTIELQMKKKGFKMEVGQYIFVKCPKVSKLEWHPFTLTSAPEEDFFSIHIRIVGDWTEGLFNACGCDKQEFQDAWKLPKIAVDGPFGTASEDVFSYEVVMLVGAGIGVTPFASILKSVWYKYCNNATNLKLKKIYFYWLCRDTHAFEWFADLLQLLESQMQERNNAGFLSYNIYLTGWDESQANHFAVHHDEEKDVITGLKQKTLYGRPNWDNEFKTIASQHPNTRIGVFLCGPEALAETLSKQSISNSESGPRGVHFIFNKENF
B2: endogenous NAMPT / extracellular NAMPT (eNAMPT) of mouse macrophages (BMDMs) and mouse colon (enzyme, UniProt Q99KQ4 1-491, looked up)
chain: MNAAAEAEFNILLATDSYKVTHYKQYPPNTSKVYSYFECREKKTENSKVRKVKYEETVFYGLQYILNKYLKGKVVTKEKIQEAKEVYREHFQDDVFNERGWNYILEKYDGHLPIEVKAVPEGSVIPRGNVLFTVENTDPECYWLTNWIETILVQSWYPITVATNSREQKKILAKYLLETSGNLDGLEYKLHDFGYRGVSSQETAGIGASAHLVNFKGTDTVAGIALIKKYYGTKDPVPGYSVPAAEHSTITAWGKDHEKDAFEHIVTQFSSVPVSVVSDSYDIYNACEKIWGEDLRHLIVSRSTEAPLIIRPDSGNPLDTVLKVLDILGKKFPVTENSKGYKLLPPYLRVIQGDGVDINTLQEIVEGMKQKKWSIENVSFGSGGALLQKLTRDLLNCSFKCSYVVTNGLGVNVFKDPVADPNKRSKKGRLSLHRTPAGNFVTLEEGKGDLEEYGHDLLHTVFKNGKVTKSYSFDEVRKNAQLNIEQDVAPH
notes: Endogenous protein of mouse cells or tissue, immunoprecipitated with anti-NAMPT; also called iNAMPT
B3: recombinant NAMPT protein (rNAMPT) (enzyme)
chain: MNPAAEAEFNILLATDSYKVTHYKQYPPNTSKVYSYFECREKKTENSKLRKVKYEETVFYGLQYILNKYLKGKVVTKEKIQEAKDVYKEHFQDDVFNEKGWNYILEKYDGHLPIEIKAVPEGFVIPRGNVLFTVENTDPECYWLTNWIETILVQSWYPITVATNSREQKKILAKYLLETSGNLDGLEYKLHDFGYRGVSSQETAGIGASAHLVNFKGTDTVAGLALIKKYYGTKDPVPGYSVPAAEHSTITAWGKDHEKDAFEHIVTQFSSVPVSVVSDSYDIYNACEKIWGEDLRHLIVSRSTQAPLIIRPDSGNPLDTVLKVLEILGKKFPVTENSKGYKLLPPYLRVIQGDGVDINTLQEIVEGMKQKMWSIENIAFGSGGGLLQKLTRDLLNCSFKCSYVVTNGLGINVFKDPVADPNKRSKKGRLSLHRTPAGNFVTLEEGKGDLEEYGQDLLHTVFKNGKVTKSYSFDEIRKNAQLNIELEAAHH
notes: Pulled down with anti-His, so it carries a His tag; also called eNAMPT (rNAMPT); unlabeled NAMPT
B4: endogenous ASC of mouse macrophages (BMDMs) (other, UniProt Q9EPB4 1-193, looked up)
chain: MGRARDAILDALENLSGDELKKFKMKLLTVQLREGYGRIPRGALLQMDAIDLTDKLVSYYLESYGLELTMTVLRDMGLQELAEQLQTTKEESGAVAAAASVPAQSTARTGHFVDQHRQALIARVTEVDGVLDALHGSVLTEGQYQAVRAETTSQDKMRKLFSFVPSWNLTCKDSLLQALKEIHPYLVMDLEQS

For assay [1], the target named is B3. Briefly: fluorescence binding: titration of fluorescently labeled CYBB with unlabeled rNAMPT, curve fit.
Description: Specifically, (A) normal human cases along with UC patients were used for IB with αNAMPT and αCYBB. For IB with αActin (upper), whole cell lysates (WCLs) were used. Representative gel images derived from five independent healthy controls and patients were shown. […] Five of ten data from normal human and UC patients were shown. […] (B) The colons of normal mice and mice with acute and chronic colitis were analyzed for IB with αNAMPT and αCYBB. WCLs were used for IB together with αActin. Biological replicates (n=10) for each condition were performed. (C) BMDMs were activated with LPS (100 ng/mL) for the indicated times (left), primed with LPS (100 ng/ml) for 4 hours, and then stimulated with ATP (1 mM) for the indicated times (right). IB in the supernatant (SN) with αNAMPT and WCL with αNAMPT or αActin. […] BMDMs were treated for IP with αNAMPT or αHis, and then treated sequentially IB with αTLR4, αCYBB, or αCYBA (D), and IB with αASC or αNLRP3(E). WCLs were used for IB with αTLR4, αCYBB, αCYBA, αASC, αNLRP3 or αActin.
Assay [2] deals with T3, endogenous NLRP3 of mouse macrophages (BMDMs) (mouse, UniProt Q8R4B8 1-1033, limits assumed). Briefly: co-IP (anti-NAMPT) from LPS/ATP-treated BMDMs, anti-NLRP3 blot.
T3 sequence (Q8R4B8 whole entry): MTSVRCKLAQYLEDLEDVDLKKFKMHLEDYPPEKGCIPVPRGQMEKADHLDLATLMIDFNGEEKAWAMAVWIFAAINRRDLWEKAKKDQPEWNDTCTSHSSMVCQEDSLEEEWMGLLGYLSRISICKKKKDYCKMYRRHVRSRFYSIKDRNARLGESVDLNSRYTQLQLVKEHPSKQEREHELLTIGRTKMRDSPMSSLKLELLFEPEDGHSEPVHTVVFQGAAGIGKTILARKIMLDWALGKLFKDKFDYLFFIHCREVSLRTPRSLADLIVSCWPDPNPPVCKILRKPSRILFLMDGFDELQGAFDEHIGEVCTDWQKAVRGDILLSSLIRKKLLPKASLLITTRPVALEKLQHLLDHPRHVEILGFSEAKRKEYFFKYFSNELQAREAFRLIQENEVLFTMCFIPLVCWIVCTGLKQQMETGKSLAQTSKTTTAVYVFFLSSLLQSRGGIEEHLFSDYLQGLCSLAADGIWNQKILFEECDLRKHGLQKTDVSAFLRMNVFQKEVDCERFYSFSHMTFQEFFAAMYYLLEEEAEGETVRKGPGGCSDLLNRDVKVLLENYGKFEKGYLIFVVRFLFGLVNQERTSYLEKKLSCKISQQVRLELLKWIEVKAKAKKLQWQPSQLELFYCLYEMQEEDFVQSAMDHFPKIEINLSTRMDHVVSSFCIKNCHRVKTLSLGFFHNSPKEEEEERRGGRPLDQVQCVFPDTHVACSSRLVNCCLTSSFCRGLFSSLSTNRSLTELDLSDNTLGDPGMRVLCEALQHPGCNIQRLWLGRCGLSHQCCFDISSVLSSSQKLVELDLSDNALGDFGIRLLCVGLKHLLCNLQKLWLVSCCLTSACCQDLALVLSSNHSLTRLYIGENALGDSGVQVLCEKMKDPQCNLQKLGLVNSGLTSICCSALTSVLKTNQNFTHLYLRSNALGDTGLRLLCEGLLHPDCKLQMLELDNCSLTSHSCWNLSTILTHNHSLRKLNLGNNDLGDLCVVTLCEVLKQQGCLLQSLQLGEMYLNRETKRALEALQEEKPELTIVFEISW
Assay [3] addresses T1, endogenous TLR4 of mouse macrophages …. Nature of the assay: co-IP (anti-His or anti-NAMPT) from mouse colon tissue, anti-TLR4 blot.
The target in assay [4] is T2, endogenous CYBB of mouse macrophages …. Nature of the assay: co-IP (anti-His or anti-NAMPT) from mouse colon tissue, anti-CYBB blot.
The target in assay [5] is T3, endogenous NLRP3 of mouse macrophages …. Nature of the assay: co-IP (anti-His) from BMDMs incubated with rNAMPT, anti-NLRP3 blot.
For assay [6], the target named is B2. Nature of the assay: co-IP (anti-NAMPT) from LPS/ATP-treated BMDMs, anti-ASC blot.
Assay [7] has as its target B3. Briefly: co-IP (anti-His) from BMDMs incubated with rNAMPT, anti-ASC blot.

As to B1, in assay [1], the Kd (commonly the constant that tells how readily two partners part at equilibrium) amounted to 896 nM. As to B2, the results for the binding result in assay [2], in assay [3] and in assay [4] were “no binding”, “binds” and “binds”, respectively. Consider B3, for which, in assay [5], the binding result was “no binding (tested: 1 ug/mL rNAMPT)”.

With B4, the binding result in assay [6] is “no binding”; in assay [7], “no binding (tested: 1 ug/mL rNAMPT)”.
